# Target: KIX domain of human CBP (residues 586–672) (human, UniProt Q92793 586-672)
# Test: ITC
# Sequence of KIX domain of human CBP (residues 586–672) (Q92793 586-672): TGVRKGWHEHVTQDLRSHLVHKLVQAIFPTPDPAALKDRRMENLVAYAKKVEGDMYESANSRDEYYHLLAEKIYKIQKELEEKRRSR
Binder,Kd [nM],dH [kcal/mol]
"human WT c-Myb TAD (residues 275–327) (domain or fragment, UniProt P10242 275-327, looked up) PAAAAIQRHYNDEDPEKEKRIKELELLLMSTENELKGQQVLPTQNHTCSYPGW",500 ± 30,-10.5 ± 0.4
"c-Myb TAD L300A (domain or fragment, human, UniProt P10242 275-327, looked up) PAAAAIQRHYNDEDPEKEKRIKELEALLMSTENELKGQQVLPTQNHTCSYPGW",670 ± 80,-9.26 ± 0.39
"c-Myb TAD G311A (domain or fragment, human, UniProt P10242 275-327, looked up) PAAAAIQRHYNDEDPEKEKRIKELELLLMSTENELKAQQVLPTQNHTCSYPGW",460 ± 30,-10.1 ± 0.26
"c-Myb TAD K296H (domain or fragment, human, UniProt P10242 275-327, looked up) PAAAAIQRHYNDEDPEKEKRIHELELLLMSTENELKGQQVLPTQNHTCSYPGW",870 ± 50,-13.8 ± 0.48
"c-Myb TAD L300P (domain or fragment, human, UniProt P10242 275-327, looked up) PAAAAIQRHYNDEDPEKEKRIKELEPLLMSTENELKGQQVLPTQNHTCSYPGW",290000 ± 101000,-1.34 ± 0.29
"c-Myb TAD E292D (domain or fragment, human, UniProt P10242 275-327, looked up) PAAAAIQRHYNDEDPEKDKRIKELELLLMSTENELKGQQVLPTQNHTCSYPGW",630 ± 20,-11.22 ± 0.05
"c-Myb TAD L300G (domain or fragment, human, UniProt P10242 275-327, looked up) PAAAAIQRHYNDEDPEKEKRIKELEGLLMSTENELKGQQVLPTQNHTCSYPGW",2240 ± 20,-11.33 ± 0.04
"c-Myb TAD L300V (domain or fragment, human, UniProt P10242 275-327, looked up) PAAAAIQRHYNDEDPEKEKRIKELEVLLMSTENELKGQQVLPTQNHTCSYPGW",820 ± 50,-11.38 ± 0.11
"c-Myb TAD K293H (domain or fragment, human, UniProt P10242 275-327, looked up) PAAAAIQRHYNDEDPEKEHRIKELELLLMSTENELKGQQVLPTQNHTCSYPGW",780 ± 60,-11.1 ± 2.1

# Now from value to binder:
Kd [nM],dH [kcal/mol],Binder
530 ± 20,-9.81 ± 0.1,"c-Myb TAD P289A/P316A (domain or fragment, human, UniProt P10242 275-327, looked up) PAAAAIQRHYNDEDAEKEKRIKELELLLMSTENELKGQQVLATQNHTCSYPGW"
3450 ± 500,-7.35 ± 0.97,"c-Myb TAD S304P (domain or fragment, human, UniProt P10242 275-327, looked up) PAAAAIQRHYNDEDPEKEKRIKELELLLMPTENELKGQQVLPTQNHTCSYPGW"
710 ± 130,-13.3 ± 2.69,"c-Myb TAD S304G (domain or fragment, human, UniProt P10242 275-327, looked up) PAAAAIQRHYNDEDPEKEKRIKELELLLMGTENELKGQQVLPTQNHTCSYPGW"
390,-8.44 ± 0.04,"c-Myb TAD N307V (domain or fragment, human, UniProt P10242 275-327, looked up) PAAAAIQRHYNDEDPEKEKRIKELELLLMSTEVELKGQQVLPTQNHTCSYPGW"
610 ± 40,-9.26 ± 0.23,"c-Myb TAD N307G (domain or fragment, human, UniProt P10242 275-327, looked up) PAAAAIQRHYNDEDPEKEKRIKELELLLMSTEGELKGQQVLPTQNHTCSYPGW"
950 ± 70,-8.97 ± 0.32,"c-Myb TAD N307P (domain or fragment, human, UniProt P10242 275-327, looked up) PAAAAIQRHYNDEDPEKEKRIKELELLLMSTEPELKGQQVLPTQNHTCSYPGW"
380 ± 40,-6.94 ± 0.51,"c-Myb TAD S304A (domain or fragment, human, UniProt P10242 275-327, looked up) PAAAAIQRHYNDEDPEKEKRIKELELLLMATENELKGQQVLPTQNHTCSYPGW"
620 ± 20,-10.2 ± 0.27,"c-Myb TAD P289A (domain or fragment, human, UniProt P10242 275-327, looked up) PAAAAIQRHYNDEDAEKEKRIKELELLLMSTENELKGQQVLPTQNHTCSYPGW"
410 ± 70,-8.29 ± 0.6,"c-Myb TAD N307A (domain or fragment, human, UniProt P10242 275-327, looked up) PAAAAIQRHYNDEDPEKEKRIKELELLLMSTEAELKGQQVLPTQNHTCSYPGW"
1490 ± 290,-8.39 ± 0.93,"c-Myb TAD S304V (domain or fragment, human, UniProt P10242 275-327, looked up) PAAAAIQRHYNDEDPEKEKRIKELELLLMVTENELKGQQVLPTQNHTCSYPGW"

# Reference: article PMC6082395 (Journal of molecular biology, 2018)
